Patent US20240082356A1, “TREATMENT OF COPD BY STIMULATION OF STEM CELL MOBILIZATION” (Therapeutic Solutions International, Inc., priority 2022, published 2024)

System: neutrophil infiltration in COPD like inflammation
Assay: Neutrophil infiltration in elastase-induced COPD model
Assay type: in vivo
Conditions: female BALB/c mice injected with elastase (5 micrograms per mouse); G-CSF 10 micrograms per mouse every second day for one week and pterostilbene 40 mg/kg intraperitoneally; assessed on days 0, 7 and 14
Protocol: Female BALB/c mice, 10 per group, where injected with elastase (5 micrograms per mouse) to induce COPD like inflammation. Mice were given G-CSF (10 micrograms per mouse) every second day for one week and pterostilbene (40 mg/kg) intraperitoneally. Mice were sacrificed on days 0, 7, and 14 and assessed for neutrophil infiltration.

B1: G-CSF: stem cell mobilizer; colony stimulating factor (protein, UniProt P09919 31-207, looked up)
Granulocyte …: TPLGPASSLPQSFLLKCLEQVRKIQGDGAALQEKLVSECATYKLCHPEELVLLGHSLGIPWAPLSSCPSQALQLAGCLSQLHSGLFLYQGLLQALEGISPELGPTLDTLQLDVADFATTIWQQMEELGMAPALQPTQGAMPAFASAFQRRAGGVLVASHLQSFLEVSYRVLRHLAQP
Question: Which “neutrophil infiltration in COPD Model” value does the source give for B1 here?
Answer: reduction of neutrophil infiltration
